This note sets out measurements from article PMC4615246 (Nucleus, 2015).

Read-outs that look alike come from different tables or passages of the source.

Common to all, as to test: LacI/LacO array recruitment in cells
The target of assay [1] is T1, LacI-CFP-Nup58 (human, UniProt Q9BVL2 1-599).
T1 sequence: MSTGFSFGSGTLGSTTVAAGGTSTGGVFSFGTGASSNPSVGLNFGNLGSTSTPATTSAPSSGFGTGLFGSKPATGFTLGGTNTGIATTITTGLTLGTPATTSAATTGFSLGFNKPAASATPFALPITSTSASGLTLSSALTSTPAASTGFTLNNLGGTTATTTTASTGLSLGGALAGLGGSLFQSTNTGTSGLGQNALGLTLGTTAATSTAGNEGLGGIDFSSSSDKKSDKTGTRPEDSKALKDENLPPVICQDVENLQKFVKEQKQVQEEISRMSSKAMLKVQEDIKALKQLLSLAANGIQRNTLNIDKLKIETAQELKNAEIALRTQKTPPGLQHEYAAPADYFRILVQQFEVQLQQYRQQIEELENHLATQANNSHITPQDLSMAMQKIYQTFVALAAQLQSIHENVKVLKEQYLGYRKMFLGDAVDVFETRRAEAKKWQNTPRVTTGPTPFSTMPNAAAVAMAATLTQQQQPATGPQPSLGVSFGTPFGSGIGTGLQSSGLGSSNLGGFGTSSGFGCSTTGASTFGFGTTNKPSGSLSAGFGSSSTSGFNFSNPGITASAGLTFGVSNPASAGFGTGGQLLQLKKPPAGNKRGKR

The target in assay [2] is T2, LacI-CFP-Nup98 (human, UniProt P52948 1-880).
T2 sequence: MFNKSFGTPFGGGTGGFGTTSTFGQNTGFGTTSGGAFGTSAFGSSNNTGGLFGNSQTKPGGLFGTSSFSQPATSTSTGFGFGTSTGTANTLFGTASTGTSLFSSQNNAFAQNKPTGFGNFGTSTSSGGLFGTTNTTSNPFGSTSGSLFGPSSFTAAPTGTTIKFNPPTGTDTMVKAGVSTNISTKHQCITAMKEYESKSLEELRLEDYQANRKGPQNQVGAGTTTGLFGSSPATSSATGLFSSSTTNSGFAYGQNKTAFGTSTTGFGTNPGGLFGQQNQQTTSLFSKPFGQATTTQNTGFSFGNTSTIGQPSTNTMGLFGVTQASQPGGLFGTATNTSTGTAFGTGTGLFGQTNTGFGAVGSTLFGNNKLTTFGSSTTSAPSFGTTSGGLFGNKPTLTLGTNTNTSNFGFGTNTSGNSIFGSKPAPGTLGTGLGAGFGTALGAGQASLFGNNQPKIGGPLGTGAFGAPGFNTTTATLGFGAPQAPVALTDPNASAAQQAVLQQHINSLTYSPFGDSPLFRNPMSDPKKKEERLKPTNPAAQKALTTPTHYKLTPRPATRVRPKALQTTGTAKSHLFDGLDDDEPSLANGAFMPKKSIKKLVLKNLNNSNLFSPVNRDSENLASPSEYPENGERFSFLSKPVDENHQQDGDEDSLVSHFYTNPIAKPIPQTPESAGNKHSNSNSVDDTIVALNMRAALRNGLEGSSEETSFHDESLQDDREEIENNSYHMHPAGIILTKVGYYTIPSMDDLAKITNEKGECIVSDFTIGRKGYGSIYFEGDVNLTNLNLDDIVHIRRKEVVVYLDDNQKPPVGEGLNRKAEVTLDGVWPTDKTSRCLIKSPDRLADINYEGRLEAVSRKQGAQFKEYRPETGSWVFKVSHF

Assay [3] concerns the target LacI-CFP-Nup214 (human, UniProt P35658 1-2090).
The target of assay [4] is T3, LacI-CFP-Nup53 (human, UniProt Q8NFH5 1-326).
T3 sequence: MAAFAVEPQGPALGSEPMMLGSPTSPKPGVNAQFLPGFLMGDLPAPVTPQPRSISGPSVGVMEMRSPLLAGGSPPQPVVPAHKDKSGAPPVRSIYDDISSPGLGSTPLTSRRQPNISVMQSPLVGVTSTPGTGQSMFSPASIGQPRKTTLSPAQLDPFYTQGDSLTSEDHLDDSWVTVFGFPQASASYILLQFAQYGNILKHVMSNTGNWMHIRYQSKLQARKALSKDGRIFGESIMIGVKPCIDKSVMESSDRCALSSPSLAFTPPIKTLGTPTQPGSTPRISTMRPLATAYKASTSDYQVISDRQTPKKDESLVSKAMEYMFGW

The target of assay [5] is T3, LacI-CFP-Nup53. The source holds these as a separate data set.

LacI-CFP-Nup214, sequence (P35658 whole entry): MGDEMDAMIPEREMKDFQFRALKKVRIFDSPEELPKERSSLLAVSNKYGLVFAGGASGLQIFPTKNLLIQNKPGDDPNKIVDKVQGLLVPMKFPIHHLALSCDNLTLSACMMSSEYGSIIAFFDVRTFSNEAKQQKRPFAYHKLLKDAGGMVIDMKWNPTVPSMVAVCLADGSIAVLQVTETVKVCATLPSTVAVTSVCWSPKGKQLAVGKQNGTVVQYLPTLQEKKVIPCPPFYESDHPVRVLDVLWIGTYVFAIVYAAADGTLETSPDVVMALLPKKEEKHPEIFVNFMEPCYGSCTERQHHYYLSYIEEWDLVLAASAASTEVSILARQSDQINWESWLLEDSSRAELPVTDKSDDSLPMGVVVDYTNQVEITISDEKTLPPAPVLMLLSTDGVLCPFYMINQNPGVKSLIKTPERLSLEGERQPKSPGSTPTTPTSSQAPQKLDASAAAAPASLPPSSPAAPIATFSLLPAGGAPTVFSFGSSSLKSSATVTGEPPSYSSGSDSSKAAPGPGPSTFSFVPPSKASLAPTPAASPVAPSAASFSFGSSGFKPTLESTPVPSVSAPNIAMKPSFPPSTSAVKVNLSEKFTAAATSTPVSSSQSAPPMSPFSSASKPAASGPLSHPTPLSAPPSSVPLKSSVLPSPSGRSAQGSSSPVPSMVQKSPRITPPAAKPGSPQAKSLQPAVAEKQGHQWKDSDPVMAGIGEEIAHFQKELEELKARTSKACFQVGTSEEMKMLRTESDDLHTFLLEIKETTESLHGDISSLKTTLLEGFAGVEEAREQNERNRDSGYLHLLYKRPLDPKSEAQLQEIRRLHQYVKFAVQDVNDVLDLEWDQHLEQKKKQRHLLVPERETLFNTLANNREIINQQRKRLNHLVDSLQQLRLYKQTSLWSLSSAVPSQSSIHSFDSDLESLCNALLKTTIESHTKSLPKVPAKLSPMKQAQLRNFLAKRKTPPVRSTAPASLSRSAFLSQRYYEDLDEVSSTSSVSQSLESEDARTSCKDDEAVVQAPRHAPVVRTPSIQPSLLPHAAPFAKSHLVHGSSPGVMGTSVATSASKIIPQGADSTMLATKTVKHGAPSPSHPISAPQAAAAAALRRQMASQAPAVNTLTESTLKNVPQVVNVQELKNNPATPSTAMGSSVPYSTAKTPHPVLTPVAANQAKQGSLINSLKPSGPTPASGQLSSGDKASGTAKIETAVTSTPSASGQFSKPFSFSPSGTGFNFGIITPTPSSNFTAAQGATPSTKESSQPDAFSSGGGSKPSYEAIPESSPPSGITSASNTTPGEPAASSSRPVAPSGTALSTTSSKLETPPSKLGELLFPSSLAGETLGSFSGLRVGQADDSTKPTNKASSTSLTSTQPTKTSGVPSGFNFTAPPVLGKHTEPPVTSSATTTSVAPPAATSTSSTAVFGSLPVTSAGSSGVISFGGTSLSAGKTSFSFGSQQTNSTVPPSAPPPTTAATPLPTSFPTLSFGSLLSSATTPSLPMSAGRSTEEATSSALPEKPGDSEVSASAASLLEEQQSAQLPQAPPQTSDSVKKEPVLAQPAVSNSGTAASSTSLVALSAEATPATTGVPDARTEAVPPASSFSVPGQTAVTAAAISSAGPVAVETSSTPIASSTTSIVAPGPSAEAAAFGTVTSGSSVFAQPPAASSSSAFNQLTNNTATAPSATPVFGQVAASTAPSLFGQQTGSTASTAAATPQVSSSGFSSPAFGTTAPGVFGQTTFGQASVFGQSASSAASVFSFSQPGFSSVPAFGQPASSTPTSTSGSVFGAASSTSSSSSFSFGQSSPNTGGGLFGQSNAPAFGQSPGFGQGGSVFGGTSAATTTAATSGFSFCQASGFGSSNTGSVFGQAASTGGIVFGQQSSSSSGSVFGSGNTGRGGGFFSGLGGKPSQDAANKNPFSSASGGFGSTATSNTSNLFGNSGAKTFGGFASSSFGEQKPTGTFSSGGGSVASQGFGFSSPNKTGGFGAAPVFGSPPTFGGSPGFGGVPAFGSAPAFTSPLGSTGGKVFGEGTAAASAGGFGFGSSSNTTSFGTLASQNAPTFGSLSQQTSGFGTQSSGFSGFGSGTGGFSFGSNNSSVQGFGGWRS

B1: Nup62 (endogenous) (natural protein)
chain: MSGFNFGGTGAPTGGFTFGTAKTATTTPATGFSFSTSGTGGFNFGAPFQPATSTPSTGLFSLATQTPATQTTGFTFGTATLASGGTGFSLGIGASKLNLSNTAATPAMANPSGFGLGSSNLTNAISSTVTSSQGTAPTGFVFGPSTTSVAPATTSGGFSFTGGSTAQPSGFNIGSAGNSAQPTAPATLPFTPATPAATTAGATQPAAPTPTATITSTGPSLFASIATAPTSSATTGLSLCTPVTTAGAPTAGTQGFSLKAPGAASGTSTTTSTAATATATTTSSSSTTGFALNLKPLAPAGIPSNTAAAVTAPPGPGAAAGAAASSAMTYAQLESLINKWSLELEDQERHFLQQATQVNAWDRTLIENGEKITSLHREVEKVKLDQKRLDQELDFILSQQKELEDLLSPLEELVKEQSGTIYLQHADEEREKTYKLAENIDAQLKRMAQDLKDIIEHLNTSGAPADTSDPLQQICKILNAHMDSLQWIDQNSALLQRKVEEVTKVCEGRRKEQERSFRITFD
B1: the “percent of transfected cells showing colocalization” value in assay [1] came to 100%; in assay [2], 8%; in assay [3] it was 97%.

B2: Nup93 (endogenous) (natural protein)
chain: MDTEGFGELLQQAEQLAAETEGISELPHVERNLQEIQQAGERLRSRTLTRTSQETADVKASVLLGSRGLDISHISQRLESLSAATTFEPLEPVKDTDIQGFLKNEKDNALLSAIEESRKRTFGMAEEYHRESMLVEWEQVKQRILHTLLASGEDALDFTQESEPSYISDVGPPGRSSLDNIEMAYARQIYIYNEKIVNGHLQPNLVDLCASVAELDDKSISDMWTMVKQMTDVLLTPATDALKNRSSVEVRMEFVRQALAYLEQSYKNYTLVTVFGNLHQAQLGGVPGTYQLVRSFLNIKLPAPLPGLQDGEVEGHPVWALIYYCMRCGDLLAASQVVNRAQHQLGEFKTWFQEYMNSKDRRLSPATENKLRLHYRRALRNNTDPYKRAVYCIIGRCDVTDNQSEVADKTEDYLWLKLNQVCFDDDGTSSPQDRLTLSQFQKQLLEDYGESHFTVNQQPFLYFQVLFLTAQFEAAVAFLFRMERLRCHAVHVALVLFELKLLLKSSGQSAQLLSHEPGDPPCLRRLNFVRLLMLYTRKFESTDPREALQYFYFLRDEKDSQGENMFLRCVSELVIESREFDMILGKLENDGSRKPGVIDKFTSDTKPIINKVASVAENKGLFEEAAKLYDLAKNADKVLELMNKLLSPVVPQISAPQSNKERLKNMALSIAERYRAQGISANKFVDSTFYLLLDLITFFDEYHSGHIDRAFDIIERLKLVPLNQESVEERVAAFRNFSDEIRHNLSEVLLATMNILFTQFKRLKGTSPSSSSRPQRVIEDRDSQLRSQARTLITFAGMIPYRTSGDTNARLVQMEVLMN
Turning to B2, the “percent of transfected cells showing colocalization” value in assay [4] was 63%; in assay [5], 67%.
